Test results: paper PMC12501149 (2025)
Where no end group is shown, it is not given here.

B1: fzd13 (designed binder)
chain: AEKEVQELIDKALNTPDPKVASKYIISAVYVAAKARDPSLFQSALDTAKKL
B2: ss2cspg18 (designed binder)
chain: MDEKVEKLKECLEKLKEKGDIKGVIDTERAIRICERSRHKEFCEWAIEKCENRIKES
modifications: disulfide (positions not given here)
B3: fzd48 (designed binder)
chain: KEELEKMIEELKKLIENGDKENFIKLFDEAFKKAKESRDPRTIASVWTLVLEFKNKN
B4: cspg4 (designed minibinder) (designed binder)
chain: ENKLARAVVTVNKSWLATQLFVRLYRLCKAGDPRCEEVAEKLRKVLELQGVPETDIELVVEVAKG

Experiments:
[1] = biological target: TcdB 1285-1804 with C-terminal Avitag (RBD toxin fragment), biotinylated (Clostridioides difficile, UniProt P18177 1285-1804); assay: SPR
Chain of TcdB 1285-1804 with C-terminal Avitag (RBD toxin fragment), biotinylated (P18177 1285-1804): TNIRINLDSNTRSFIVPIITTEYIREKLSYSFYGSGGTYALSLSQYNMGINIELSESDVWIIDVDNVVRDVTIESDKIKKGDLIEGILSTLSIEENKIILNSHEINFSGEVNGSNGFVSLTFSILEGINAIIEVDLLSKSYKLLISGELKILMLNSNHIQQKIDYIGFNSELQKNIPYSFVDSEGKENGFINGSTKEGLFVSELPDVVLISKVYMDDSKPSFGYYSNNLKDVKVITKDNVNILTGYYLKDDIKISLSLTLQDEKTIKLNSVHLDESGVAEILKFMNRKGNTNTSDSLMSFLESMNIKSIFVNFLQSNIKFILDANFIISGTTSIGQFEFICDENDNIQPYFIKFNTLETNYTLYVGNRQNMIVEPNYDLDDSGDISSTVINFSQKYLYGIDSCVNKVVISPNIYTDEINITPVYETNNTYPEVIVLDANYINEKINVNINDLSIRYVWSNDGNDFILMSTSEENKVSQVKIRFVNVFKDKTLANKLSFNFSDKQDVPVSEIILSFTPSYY

[2] = biological target: Clostridioides difficile toxin B (TcdB), full-length TcdB1 (VP10463) (Clostridioides difficile, UniProt P18177 1-2366); assay: SPR
Chain of Clostridioides difficile toxin B (TcdB), full-length TcdB1 (VP10463) (P18177 whole entry): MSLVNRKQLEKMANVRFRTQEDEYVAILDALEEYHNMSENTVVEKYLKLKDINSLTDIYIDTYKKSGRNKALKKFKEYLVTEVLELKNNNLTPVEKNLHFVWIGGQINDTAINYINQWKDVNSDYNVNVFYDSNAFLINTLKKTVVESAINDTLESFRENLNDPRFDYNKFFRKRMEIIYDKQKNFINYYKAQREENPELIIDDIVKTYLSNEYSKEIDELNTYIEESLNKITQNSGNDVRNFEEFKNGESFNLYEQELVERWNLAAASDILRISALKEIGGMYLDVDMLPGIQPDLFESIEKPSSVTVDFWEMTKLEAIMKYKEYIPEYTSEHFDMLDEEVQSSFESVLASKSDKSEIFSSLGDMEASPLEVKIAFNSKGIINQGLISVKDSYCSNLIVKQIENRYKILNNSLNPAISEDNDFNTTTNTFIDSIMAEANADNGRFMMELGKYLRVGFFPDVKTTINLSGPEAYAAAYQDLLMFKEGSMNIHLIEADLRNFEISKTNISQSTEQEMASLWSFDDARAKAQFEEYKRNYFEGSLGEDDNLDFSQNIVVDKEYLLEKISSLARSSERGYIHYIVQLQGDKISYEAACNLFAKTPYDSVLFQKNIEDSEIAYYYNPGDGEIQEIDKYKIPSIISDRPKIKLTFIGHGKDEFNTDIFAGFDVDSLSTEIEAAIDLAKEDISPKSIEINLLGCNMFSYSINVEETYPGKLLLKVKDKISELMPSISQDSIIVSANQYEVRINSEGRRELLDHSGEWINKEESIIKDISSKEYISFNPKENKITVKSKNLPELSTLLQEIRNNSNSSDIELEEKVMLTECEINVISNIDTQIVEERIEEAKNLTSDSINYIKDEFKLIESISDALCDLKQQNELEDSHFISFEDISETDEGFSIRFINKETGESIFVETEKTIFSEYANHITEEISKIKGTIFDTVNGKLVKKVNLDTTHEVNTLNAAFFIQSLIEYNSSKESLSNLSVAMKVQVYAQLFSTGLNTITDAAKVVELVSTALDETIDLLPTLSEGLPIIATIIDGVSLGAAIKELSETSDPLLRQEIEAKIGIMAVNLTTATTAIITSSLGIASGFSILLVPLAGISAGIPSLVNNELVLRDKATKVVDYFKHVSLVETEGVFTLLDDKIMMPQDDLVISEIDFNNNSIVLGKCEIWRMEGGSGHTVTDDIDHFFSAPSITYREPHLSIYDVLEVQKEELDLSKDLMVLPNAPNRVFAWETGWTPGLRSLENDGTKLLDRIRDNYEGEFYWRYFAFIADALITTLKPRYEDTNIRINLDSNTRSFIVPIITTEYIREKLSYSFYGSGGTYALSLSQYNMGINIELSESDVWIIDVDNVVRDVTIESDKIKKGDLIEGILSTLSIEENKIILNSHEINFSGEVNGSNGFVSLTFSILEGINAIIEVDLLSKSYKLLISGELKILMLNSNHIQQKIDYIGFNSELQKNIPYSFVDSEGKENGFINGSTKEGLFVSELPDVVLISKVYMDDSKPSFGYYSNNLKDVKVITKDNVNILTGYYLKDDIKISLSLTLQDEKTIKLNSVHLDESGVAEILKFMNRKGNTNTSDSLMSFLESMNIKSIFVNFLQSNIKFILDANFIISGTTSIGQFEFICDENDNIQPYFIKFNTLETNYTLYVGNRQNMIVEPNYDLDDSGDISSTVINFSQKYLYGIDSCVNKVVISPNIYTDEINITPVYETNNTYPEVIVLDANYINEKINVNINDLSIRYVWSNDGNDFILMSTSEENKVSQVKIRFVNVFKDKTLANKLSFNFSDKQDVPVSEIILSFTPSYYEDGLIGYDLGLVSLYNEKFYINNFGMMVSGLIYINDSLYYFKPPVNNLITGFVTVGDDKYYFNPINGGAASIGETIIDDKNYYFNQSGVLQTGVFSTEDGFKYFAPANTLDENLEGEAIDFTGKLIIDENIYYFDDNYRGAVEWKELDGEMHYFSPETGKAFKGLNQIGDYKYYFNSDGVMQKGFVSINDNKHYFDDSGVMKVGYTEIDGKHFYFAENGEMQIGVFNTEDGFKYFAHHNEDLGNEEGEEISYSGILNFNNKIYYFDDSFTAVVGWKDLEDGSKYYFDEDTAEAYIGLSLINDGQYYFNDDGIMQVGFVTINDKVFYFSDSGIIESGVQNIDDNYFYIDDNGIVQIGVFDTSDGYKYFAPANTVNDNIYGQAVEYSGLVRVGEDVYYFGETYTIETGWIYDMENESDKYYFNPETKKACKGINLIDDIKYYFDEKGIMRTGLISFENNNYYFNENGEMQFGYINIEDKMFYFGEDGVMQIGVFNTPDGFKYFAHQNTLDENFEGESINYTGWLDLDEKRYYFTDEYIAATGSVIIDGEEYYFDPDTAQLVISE

Binder | Kd [1] | Kd [2]
B1 | 0.0056 nM | 
B2 |  | 0.87 nM
B3 | < 0.01 nM | 
B4 |  | 2 nM
